Paper PMC4945409

Target: wild-type KDPG aldolase scaffold (1wa3)
Assay: SEC

wild-type KDPG aldolase scaffold (1wa3) (enzyme)
stoichiometry N: 3
